The experiment concerns the target Pak2 kinase (UniProt Q13177). The experiment in a line: cell-based or functional assay.
Sequence of UniProt Q13177 (Q13177 2-524 limits assumed): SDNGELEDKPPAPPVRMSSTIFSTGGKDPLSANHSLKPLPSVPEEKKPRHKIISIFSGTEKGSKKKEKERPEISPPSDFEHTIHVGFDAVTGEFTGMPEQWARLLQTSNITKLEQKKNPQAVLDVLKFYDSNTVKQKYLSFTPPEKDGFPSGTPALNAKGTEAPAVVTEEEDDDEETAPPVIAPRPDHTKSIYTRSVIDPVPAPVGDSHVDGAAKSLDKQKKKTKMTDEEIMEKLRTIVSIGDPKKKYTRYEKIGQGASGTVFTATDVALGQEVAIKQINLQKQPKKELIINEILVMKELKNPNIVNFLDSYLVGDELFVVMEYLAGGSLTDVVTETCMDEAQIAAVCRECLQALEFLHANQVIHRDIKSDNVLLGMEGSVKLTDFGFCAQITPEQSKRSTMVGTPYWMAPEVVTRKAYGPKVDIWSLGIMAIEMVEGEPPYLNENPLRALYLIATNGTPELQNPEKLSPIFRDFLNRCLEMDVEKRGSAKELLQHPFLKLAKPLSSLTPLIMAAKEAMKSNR

In turn, “HIV-1 Nef protein, wild type (Nef from HIV-1 Clade B)” gave a phosphorylation of the Pak2 kinase at S55, quantitative phosphoproteomics of NALM6-stimulated CAR T cells, Nef-WT compared to NefAxxA of 2.15 log2Fc and a phosphorylation of the Pak2 kinase at S152, quantitative phosphoproteomics of NALM6-stimulated CAR T cells, Nef-WT compared to NefAxxA of 1.17 log2Fc.
